According to publication PMC10954455:
Where a chain is given by its changes, count along the chain named.

B1: CSTB G4 in dsDNA (mixed)
DNA 1: CCTGAAGCAGACAGCTAGTGAATTCGGGGCGGGGCGCGGGGCGGGGTACTTGCGTATAACTGTTCCATAGT
DNA 2: ACTATGGAACAGTTATACGCAAGTATTTTTTTTTTTTTTTTTTTTTGAATTCACTAGCTGTCTGCTTCAGG
B2: MYC G4 in dsDNA (mixed)
DNA 1: CCTGAAGCAGACAGCTAGTGAATTCGGGTGGGGAGGGTGGGGTACTTGCGTATAACTGTTCCATAGT
DNA 2: B1 DNA 2
B3: C-Kit G4 in dsDNA (mixed)
DNA 1: CCTGAAGCAGACAGCTAGTGAATTCGGGCGGGCGCGAGGGAGGGTACTTGCGTATAACTGTTCCATAGT
DNA 2: B1 DNA 2
B4: C9orf72 G4 in dsDNA (mixed)
DNA 1: CCTGAAGCAGACAGCTAGTGAATTCGGGGCCGGGGCCGGGGCCGGGGTACTTGCGTATAACTGTTCCATAGT
DNA 2: B1 DNA 2
B5: BCL-2 G4 in dsDNA (mixed)
DNA 1: CCTGAAGCAGACAGCTAGTGAATTCGGGCGCGGGAGGAAGGGGGCGGGTACTTGCGTATAACTGTTCCATAGT
DNA 2: B1 DNA 2
B6: Tel G4 in dsDNA (mixed)
DNA 1: CCTGAAGCAGACAGCTAGTGAATTCGGGTTAGGGTTAGGGTTAGGGTACTTGCGTATAACTGTTCCATAGT
DNA 2: B1 DNA 2
B7: MYOG in dsDNA (no G4 formed) (mixed)
DNA 1: CCTGAAGCAGACAGCTAGTGAATTCGGGTGGGCTGGGAGGTACTTGCGTATAACTGTTCCATAGT
DNA 2: B1 DNA 2
B8: PDGFRB G4 in dsDNA (mixed)
DNA 1: B7 DNA 1 with T29G, T34G, G36C, A38G
DNA 2: B1 DNA 2
B9: T1B1 G4 in dsDNA (mixed)
DNA 1: CCTGAAGCAGACAGCTAGTGAATTCGTGGTGGGTGGGTGGGTACTTGCGTATAACTGTTCCATAGT
DNA 2: B1 DNA 2
B10: T4B1 G4 in dsDNA (mixed)
DNA 1: B3 DNA 1 with G27T, G28T, C29T, G30T, C33T, C35G, A37T, A41T
DNA 2: B1 DNA 2
B11: B4-dx2 G4 in dsDNA (mixed)
DNA 1: CCTGAAGCAGACAGCTAGTGAATTCGGATCTGAGAATCAGATGTGGGTGGGTGGGTACTTGCGTATAACTGTTCCATAGT
DNA 2: B1 DNA 2
B12: non-G4 dsDNA (dsDNA)
DNA 1: CCTGAAGCAGACAGCTAGTGAATTCAAAAAAAAAAAAAAAAAAAAATACTTGCGTATAACTGTTCCATAGT
DNA 2: B1 DNA 2

These binders were tested against Human DNA topoisomerase 1 (Top1) (Homo sapiens, UniProt P11387 1-765) (assay: EMSA).
Sequence of Human DNA topoisomerase 1 (Top1) (P11387 whole entry): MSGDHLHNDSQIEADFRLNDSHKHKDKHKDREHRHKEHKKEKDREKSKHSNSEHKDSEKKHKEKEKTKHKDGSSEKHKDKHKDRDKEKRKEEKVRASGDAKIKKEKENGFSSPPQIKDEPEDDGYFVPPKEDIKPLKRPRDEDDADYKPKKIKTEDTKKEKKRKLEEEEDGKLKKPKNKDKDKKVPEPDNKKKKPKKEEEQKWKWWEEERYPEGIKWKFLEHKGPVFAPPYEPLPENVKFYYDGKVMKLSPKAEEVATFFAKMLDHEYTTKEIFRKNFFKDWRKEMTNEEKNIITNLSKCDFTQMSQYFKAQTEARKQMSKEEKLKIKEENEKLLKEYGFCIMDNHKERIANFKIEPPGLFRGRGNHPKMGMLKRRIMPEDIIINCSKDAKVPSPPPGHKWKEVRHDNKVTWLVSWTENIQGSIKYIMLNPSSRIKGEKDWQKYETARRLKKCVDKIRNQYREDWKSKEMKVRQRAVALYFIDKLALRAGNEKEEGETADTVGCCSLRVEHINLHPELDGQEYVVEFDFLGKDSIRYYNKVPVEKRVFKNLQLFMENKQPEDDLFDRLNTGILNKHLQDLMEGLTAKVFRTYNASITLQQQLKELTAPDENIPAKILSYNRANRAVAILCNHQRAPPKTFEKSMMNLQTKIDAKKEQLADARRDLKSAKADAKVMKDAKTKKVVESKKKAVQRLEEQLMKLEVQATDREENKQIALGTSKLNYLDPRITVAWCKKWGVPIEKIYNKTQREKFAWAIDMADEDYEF
B1: binds.
B2: binds.
B3: binds.
B4: binds.
B5: binds.
B6: binds.
B7: no binding.
B8: binds.
B9: binds.
B10: binds.
B11: binds.
B12: no binding.
